Earlier results as cited in publication PMC5576018.

Target: CSL (Homo sapiens) (UniProt Q06330)
UniProt Q06330, sequence (Q06330 whole entry): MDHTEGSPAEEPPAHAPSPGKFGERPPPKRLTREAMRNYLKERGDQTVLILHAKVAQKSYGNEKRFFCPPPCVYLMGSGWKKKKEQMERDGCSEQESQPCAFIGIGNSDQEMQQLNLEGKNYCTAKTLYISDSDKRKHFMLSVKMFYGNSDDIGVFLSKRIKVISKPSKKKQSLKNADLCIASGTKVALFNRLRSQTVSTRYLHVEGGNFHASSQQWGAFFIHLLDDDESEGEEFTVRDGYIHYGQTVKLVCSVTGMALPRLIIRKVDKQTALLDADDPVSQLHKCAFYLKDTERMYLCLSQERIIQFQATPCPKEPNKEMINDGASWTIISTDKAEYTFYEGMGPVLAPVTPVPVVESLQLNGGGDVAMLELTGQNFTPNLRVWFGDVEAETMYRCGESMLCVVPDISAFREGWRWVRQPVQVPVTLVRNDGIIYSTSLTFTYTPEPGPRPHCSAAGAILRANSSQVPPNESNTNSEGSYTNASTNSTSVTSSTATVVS

Kd: 22 nM
Substance: Notch RAM RAM (from UniProt P46531)
